Assay results taken from doi:10.1101/481713.

How the values were obtained:
[1] = target: human Broccoli Ndc80-GFP construct (human) (UniProt O14777)
[2] = target: Xenopus laevis CENP-E-GFP construct (1-473 aa) (Xenopus laevis); assay: binding of microtubules to protein-coated beads seen by fluorescence microscopy
[3] = target: human Broccoli Ndc80-GFP construct (human) (UniProt O14777); assay: as above

Chain of UniProt O14777 (O14777 whole entry, looked up, the tested form may be a part): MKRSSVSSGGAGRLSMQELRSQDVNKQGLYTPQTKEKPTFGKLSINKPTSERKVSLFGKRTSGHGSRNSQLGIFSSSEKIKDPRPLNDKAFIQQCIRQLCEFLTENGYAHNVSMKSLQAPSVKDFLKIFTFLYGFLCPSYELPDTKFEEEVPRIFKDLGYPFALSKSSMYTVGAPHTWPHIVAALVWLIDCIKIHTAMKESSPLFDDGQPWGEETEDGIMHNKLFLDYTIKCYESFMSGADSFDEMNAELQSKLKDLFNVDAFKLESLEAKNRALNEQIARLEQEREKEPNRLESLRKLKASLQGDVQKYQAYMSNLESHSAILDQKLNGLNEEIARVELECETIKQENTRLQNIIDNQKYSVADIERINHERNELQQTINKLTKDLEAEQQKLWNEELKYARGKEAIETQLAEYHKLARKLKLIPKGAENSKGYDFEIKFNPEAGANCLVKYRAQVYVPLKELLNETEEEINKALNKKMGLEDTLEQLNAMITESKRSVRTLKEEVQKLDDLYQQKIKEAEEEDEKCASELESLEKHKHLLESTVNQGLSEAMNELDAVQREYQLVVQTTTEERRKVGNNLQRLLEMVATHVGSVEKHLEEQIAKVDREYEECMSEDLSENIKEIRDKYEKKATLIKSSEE

microtubules polymerised from bovine brain tubulin (from UniProt Q6B856 1-445) (complex)
reduction of CENP-E motor gliding velocity on beads by the Ndc80 coating [1]: 4 fold | MT end-retention time [2]: 1.1 min | percent of MT plus-ends retained at the CENP-E–coated bead [2]: 24% | time within which >80% of MTs detached (Kaplan–Meier) [2]: < 2.5 min | percent of MT segments attached via their ends to beads coated with Ndc80 alone [3]: 3%
